Data as given in publication PMC7579878, “Unannotated single nucleotide polymorphisms in the TATA box of erythropoiesis genes show in vitro positive involvements in cognitive and mental disorders”.

B1: HBB TATA WT (ODN 1, -32C) (dsDNA)
DNA 1: AGGGCTGGGCATAAAAGTCAGGGCAG
DNA 2: CTGCCCTGACTTTTATGCCCAGCCCT
B2: HBB rs34500389:T (-32C>T, ODN 2) (dsDNA)
DNA 1: AGGGCTGGGTATAAAAGTCAGGGCAG
DNA 2: CTGCCCTGACTTTTATACCCAGCCCT
B3: HBZ TATA WT (ODN 3) (dsDNA)
DNA 1: AGCTCCCTGTATATAAGGGGACCCTG
DNA 2: CAGGGTCCCCTTATATACAGGGAGCT
B4: HBZ rs113180943:A (-29T>A, ODN 4) (dsDNA)
DNA 1: AGCTCCCTGTAAATAAGGGGACCCTG
DNA 2: CAGGGTCCCCTTATTTACAGGGAGCT
B5: EPOR TATA-like WT (ODN 5) (dsDNA)
DNA 1: CACGTCATCTATTTTTGTCTGCTACG
DNA 2: CGTAGCAGACAAAAATAGATGACGTG
B6: EPOR rs1006576690:A (-27T>A, ODN 6) (dsDNA)
DNA 1: CACGTCATCTATATTTGTCTGCTACG
DNA 2: CGTAGCAGACAAATATAGATGACGTG
B7: EPOR rs971717705:G (-29A>G, ODN 7) (dsDNA)
DNA 1: CACGTCATCTGTTTTTGTCTGCTACG
DNA 2: CGTAGCAGACAAAAACAGATGACGTG
B8: EPOR rs567946217:G (-31C>G, ODN 9) (dsDNA)
DNA 1: CACGTCATGTATTTTTGTCTGCTACG
DNA 2: CGTAGCAGACAAAAATACATGACGTG

molecular target: TATA-binding protein (hTBP) (Homo sapiens, UniProt P20226 1-339); experiment: EMSA (kinetic, kd/ka); EMSA with 32P-labelled 26 bp duplexes; binding buffer, salt, pH and temperature not given in the material; details: protein: recombinant; label: 32P (both strands); blunt
Sequence (P20226 whole entry): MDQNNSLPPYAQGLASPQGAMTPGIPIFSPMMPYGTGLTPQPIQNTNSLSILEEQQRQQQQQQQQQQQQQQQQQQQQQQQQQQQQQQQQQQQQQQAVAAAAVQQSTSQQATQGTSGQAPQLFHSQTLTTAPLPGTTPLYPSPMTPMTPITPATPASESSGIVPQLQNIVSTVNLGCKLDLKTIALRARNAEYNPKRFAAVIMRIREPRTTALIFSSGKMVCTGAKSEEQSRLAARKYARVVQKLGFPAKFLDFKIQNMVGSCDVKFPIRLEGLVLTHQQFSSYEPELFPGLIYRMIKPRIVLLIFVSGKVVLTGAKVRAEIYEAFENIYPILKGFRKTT

Binder | Kd [µM]
B1 | 0.05
B2 | 0.032 ± 0.003
B3 | 0.006
B4 | 0.04 ± 0.02
B5 | 0.17 ± 0.03
B6 | 0.011 ± 0.003
B7 | 0.15 ± 0.03
B8 | 0.08 ± 0.01
